The target in experiment [1] is T1, Human TNFR2 expressed on cells (CHO-hTNFR2 cells) (human, UniProt P20333 23-461).
T1 construct: also called CHO cells overexpressing human TNFR2; human TNFR2 reporter cells (HEK293)
T1 sequence: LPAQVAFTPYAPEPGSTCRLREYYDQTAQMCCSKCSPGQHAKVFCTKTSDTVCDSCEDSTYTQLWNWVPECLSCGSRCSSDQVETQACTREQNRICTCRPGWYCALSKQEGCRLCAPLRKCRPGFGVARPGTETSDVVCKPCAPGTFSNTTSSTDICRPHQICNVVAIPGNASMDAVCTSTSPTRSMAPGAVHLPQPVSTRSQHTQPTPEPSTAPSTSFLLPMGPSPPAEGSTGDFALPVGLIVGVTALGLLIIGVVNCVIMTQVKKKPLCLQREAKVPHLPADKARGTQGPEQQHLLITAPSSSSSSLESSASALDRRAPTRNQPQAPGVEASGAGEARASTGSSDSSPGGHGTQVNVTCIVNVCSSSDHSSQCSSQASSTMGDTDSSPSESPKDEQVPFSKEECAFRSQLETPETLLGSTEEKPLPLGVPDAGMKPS
Briefly: flow cytometry; soluble scFv inhibiting TNF (1 nM) binding to CHO-hTNFR2 cells (FIGS. 5A-5B). A general note: In flow cytometry, cells or beads pass a laser one at a time.

Experiment [2] concerns the target T2, recombinant human TNFR2-hFc protein (human, UniProt P20333 23-257).
T2 construct: also called hTNFR2-Fc; human TNFR2-Fc; not shown: human Fc
T2 sequence: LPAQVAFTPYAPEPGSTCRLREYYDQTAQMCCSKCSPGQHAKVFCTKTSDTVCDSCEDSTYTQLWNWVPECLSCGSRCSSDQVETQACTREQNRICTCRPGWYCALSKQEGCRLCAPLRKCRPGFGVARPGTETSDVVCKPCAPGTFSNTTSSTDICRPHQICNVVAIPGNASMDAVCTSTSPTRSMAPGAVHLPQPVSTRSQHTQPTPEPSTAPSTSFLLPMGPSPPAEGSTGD
Briefly: flow cytometry; hTNFR2-Fc binding to scFv displayed on yeast; one site binding fit (FIG. 6B); FIG. 6B.

Experiment [3] has as its target T1, Human TNFR2 expressed on cells …. Briefly: flow cytometry; soluble scFv inhibiting TNF (1 nM) binding to CHO-hTNFR2 cells (FIG. 7).
Experiment [4] concerns the target T2, recombinant human TNFR2-hFc protein. Nature of the experiment: flow cytometry; hTNFR2-Fc binding to scFv displayed on yeast (FIG. 4).
Experiment [5] deals with T3, recombinant human TNFR2-His (human, UniProt P20333 23-257).
T3 construct: also called hTNFR2-His; TNFR2-His protein; not shown: His tag
T3 sequence: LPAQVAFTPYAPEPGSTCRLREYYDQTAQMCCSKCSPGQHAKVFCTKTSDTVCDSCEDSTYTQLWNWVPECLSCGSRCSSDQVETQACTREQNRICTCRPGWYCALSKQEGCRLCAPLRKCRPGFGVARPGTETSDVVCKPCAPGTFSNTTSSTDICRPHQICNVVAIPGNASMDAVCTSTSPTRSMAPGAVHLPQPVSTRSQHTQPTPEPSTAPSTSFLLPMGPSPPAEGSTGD
Briefly: flow cytometry; hTNFR2-His binding to scFv displayed on yeast (FIG. 8).

In experiment [6] the target is T2, recombinant human TNFR2-hFc protein. Briefly: flow cytometry; hTNFR2-Fc binding to scFv displayed on yeast; one site binding fit (FIG. 4).
Experiment [7] has the same target. Briefly: flow cytometry; hTNFR2-Fc binding to scFv displayed on yeast; one site binding fit (FIG. 6A).
The target of experiment [8] is T1, Human TNFR2 expressed on cells …. Nature of the experiment: flow cytometry; IgG inhibiting TNF (1 nM) binding to CHO-hTNFR2 cells (FIG. 13A); FIG. 13A.
Experiment [9] shares this target. Nature of the experiment: flow cytometry; IgG binding to CHO-hTNFR2 cells; four parameter fit (FIG. 10).
The target is the same in experiment [10]. Briefly: flow cytometry; IgG inhibiting TNF (1 nM) binding to CHO-hTNFR2 cells (FIG. 12).
Experiment [11] has as its target T3, recombinant human TNFR2-His. Nature of the experiment: biolayer interferometry (BLI); IgG1 and TNFR2-His protein (FIG. 11). Background: BLI is a label-free optical method that tracks binding on a fibre tip over time.
For experiment [12], the target named is T1, Human TNFR2 expressed on cells …. Briefly: flow cytometry; IgG inhibiting TNF (1 nM) binding to CHO-hTNFR2 cells (FIG. 13B); FIG. 13B.

We go through seven molecules from US20220281990A1 (MERRIMACK PHARMACEUTICALS, published 2022).

One may read the IC50 as the concentration at which inhibition is half-maximal. A word on the Kd: it is the concentration at which binding is half-saturated. By EC50 is commonly meant the midpoint of the concentration-response curve.

B1: UC2.3 (S4-2 1D10-1G9) scFv (scFv)
scFv: QVQLLESGGGLVQPGGSLRLSCAASGFTFSTYAMSWIRQAPGKGLEWVSIISDGGDATVYADSVKGRFTISRDNSKNTLYLQMNSLRAEDTAVYYCARDGTSAAAFDSWGQGTLVTVSSASSGGSTSGSGKPGSGEGSSGSARDIQMTQSPSSLSASVGDRVTITCQASQDITNFLNWYQQKPGKAPKLLIYDASTLQTGVPSRFSGSGSGTDFTFTISSLQPEDIATYYCQQSDSYPITFGQGTKVEIKR
For the molecule B1, the results for the IC50 in experiment [1] and in experiment [3] were 6.59 nM and 4.85 nM, respectively. Besides, the values for the Kd in experiment [2] and in experiment [6] were 8.16 nM and 8.88 nM, respectively. For the same molecule, the “fold higher affinity (vs parental scFv)” value in experiment [4] is roughly 5 fold. In experiment [5], the EC50 is 33.9 nM.

B2: UC1.1 (S4-2 1B5-1D9) scFv (scFv)
scFv: QVQLLESGGGLVQPGGSLRLSCAASGFSFTSYAMTWVRQAPGKGLEWVSGISGGGAATFYADSVKGRFTISRDNSKNTLYLQMNSLRAEDTAVYYCARQSQYVGGFDYWGQGTLVTVSSASSGGSTSGSGKPGSGEGSSGSARQSVLTQPPSVSGAPGQRVTISCTGSSSNIGAGYGVHWYQQLPGTAPKLLIHGNTNRPSGVPDRFSGFKSGTSASLAITGLQAEDEADYYCQSYDSSLSGWVFGGGTKLTVLG
In turn, B2 yielded an IC50 in experiment [1] of 10.7 nM. Also, the “fold higher affinity (vs parental scFv)” value in experiment [4] is roughly 5 fold. The Kd was determined as 2.87 nM in experiment [7] and 2.59 nM in [6].

B3: UC2.3-IgG1 (antibody, V domains shown)
VH: QVQLLESGGGLVQPGGSLRLSCAASGFTFSTYAMSWIRQAPGKGLEWVSIISDGGDATVYADSVKGRFTISRDNSKNTLYLQMNSLRAEDTAVYYCARDGTSAAAFDSWGQGTLVTVSS
VL: DIQMTQSPSSLSASVGDRVTITCQASQDITNFLNWYQQKPGKAPKLLIYDASTLQTGVPSRFSGSGSGTDFTFTISSLQPEDIATYYCQQSDSYPITFGQGTKVEIKR
notes: Full-length human IgG1; also called anti-human TNFR2 IgG UC2.3
Take B3: the IC50 in [8] turned out to be 48 nM; in experiment [10] it was 12.4 nM. In addition, in experiment [9], the EC50 came out at 3.4 nM.

B4: UC2.3.8-IgG1 (antibody, V domains shown)
VH: QVQLLESGGGLVQPGGSLRLSCAASGFTFSTYAMSWIRQAPGKGLEWVSIISDGGDATVYADSVKGRFTISRDNNRNTLYLQMNSLRAEDTAVYYCARDGTSAAAFDSWGQGTLVTVSS
VL: DIQMTQSPSSLSASVGDRVTITCQASQDITNFLNWYQQKPGKAPKLLIYDASRRRAGVPSRFSGSGSGTDFTFTISSLQPEDIATYYCQQSDSYPITFGQGTKVEIKR
notes: Full-length human IgG1; UC2.3.3 heavy chain combined with UC2.3.7 light chain; also called anti-human TNFR2 IgG UC2.3.8
In the case of B4, the Kd in [11] was determined as 0.344 nM. In experiment [12], this molecule displayed a 50% inhibitory concentration (IC50) of 0.088 nM.

B5: UC2.3.3-IgG1 (antibody, V domains shown)
VH: QVQLLESGGGLVQPGGSLRLSCAASGFTFSTYAMSWIRQAPGKGLEWVSIISDGGDATVYADSVKGRFTISRDNNRNTLYLQMNSLRAEDTAVYYCARDGTSAAAFDSWGQGTLVTVSS
VL: DIQMTQSPSSLSASVGDRVTITCQASQDITNFLNWYQQKPGKAPKLLIYDASTLQTGVPSRFSGSGSGTDFTFTISSLQPEDIATYYCQQSDSYPITFGQGTKVEIKR
notes: Full-length human IgG1; also called anti-human TNFR2 IgG UC2.3.3
As to B5, the Kd in [11] is 0.573 nM. The IC50 turned out to be 0.68 nM in experiment [12] and 0.89 nM in [8].

B6: UC2.3.7-IgG1 (antibody, V domains shown)
VH: QVQLLESGGGLVQPGGSLRLSCAASGFTFSTYAMSWIRQAPGKGLEWVSIISDGGDATVYADSVKGRFTISRDNSKNTLYLQMNSLRAEDTAVYYCARDGTSAAAFDSWGQGTLVTVSS
VL: DIQMTQSPSSLSASVGDRVTITCQASQDITNFLNWYQQKPGKAPKLLIYDASRRRAGVPSRFSGSGSGTDFTFTISSLQPEDIATYYCQQSDSYPITFGQGTKVEIKR
notes: Full-length human IgG1; also called anti-human TNFR2 IgG UC2.3.7
On to B6, for which, in [11], the Kd turned out to be 17.1 nM. In [8], this molecule returned an IC50 of 8.69 nM.

B7: UC2-IgG1 (antibody, V domains shown)
VH: QVQLLESGGGLVQPGGSLRLSCAASGFTFSTYAMSWVRQAPGKGLEWVSIISDGGDATFYADSVKGRFTISRDNSKNTLYLQMNSLRAEDTAVYYCARDGTSAAAFDSWGQGTLVTVSS
VL: DIQMTQSPSSLSASVGDRVTITCQASQDITNFLNWYQQKPGKAPKLLIYDASTLQTGVPSRFSGSGSGTDFTFTISSLQPEDIATYYCQQSDSYPITFGQGTKVEIKR
notes: Full-length human IgG1; also called anti-human TNFR2 IgG UC2
The molecule B7 displayed an EC50 in experiment [9] of 97.9 nM.
